Measurements: patent US20090196913A1, “Anti-Alpha-V Immunoliposome Composition, Methods, and Uses” (priority 2007, published 2009)

Experiments:
[1] = biological target: T1, integrin αvβ3 (Homo sapiens, UniProt P06756); assay: scFv binding ELISA on integrin-coated plates; conditions: detected by HRP anti-His Ab and anti-CNTO95 Ab (c508)
T1 construct: purchased Chemicon International Inc
Method: (§1) The binding affinity of scFv CNTO95 was measured using a validated sandwich enzyme-linked immunoassay. The 96-well plates (Coasta, high binding plate) were coated with 100 ul of integrin αvβ3 or αvβ5 (Chemicon International Inc ) at 1 ug/ml in coating buffer (0.75 g Na2CO3 and 1.45 g NaHCO3 in 500 ml H2O) and incubated overnight at 4° C. The plates were blocked with Superblock blocking buffer in PBS (Pierce) at room temperature for 1 hr. Wells were washed with PBS+0.05% Tween 20 between each step. Controls and scFv purified protein were diluted serially at 3-fold with TBST, and added to the coated wells in duplicate, and incubated at 37° C. for 2 hrs. Two methods were used to detect the binding. For anti-his ELISA 1:1000 diluted HRP mouse anti-his antibody were added to each well and incubated for 1 hr. For the anti-CNTO95 anti-idiotype ELISA, an aliquot of 1:1000 diluted 1 mg/ml C508 antibody was added to each well and incubated for 1 hr. […]
(§2) The Elisa was developed using OPD tablet (Sigma) in development buffer for 15 min at room temperature. […] The binding affinity was measured in a plate reader at 490 nm. In the assay, purified CNTO95 scFv protein from E. coli bound both αvβ3 and αvβ5 integrin proteins (FIG. 14) as shown for integrin-coated ELISA plates and was detected by HRP anti-His Ab as well as the anti-CNTO95 Ab (c508).

[2] = biological target: T2, integrin αvβ5 (Homo sapiens, UniProt P06756); assay: scFv binding ELISA on integrin-coated plates; conditions: detected by HRP anti-His Ab and anti-CNTO95 Ab (c508)
T2 construct: purchased Chemicon International Inc
T2 sequence (P06756 31-889 limits assumed): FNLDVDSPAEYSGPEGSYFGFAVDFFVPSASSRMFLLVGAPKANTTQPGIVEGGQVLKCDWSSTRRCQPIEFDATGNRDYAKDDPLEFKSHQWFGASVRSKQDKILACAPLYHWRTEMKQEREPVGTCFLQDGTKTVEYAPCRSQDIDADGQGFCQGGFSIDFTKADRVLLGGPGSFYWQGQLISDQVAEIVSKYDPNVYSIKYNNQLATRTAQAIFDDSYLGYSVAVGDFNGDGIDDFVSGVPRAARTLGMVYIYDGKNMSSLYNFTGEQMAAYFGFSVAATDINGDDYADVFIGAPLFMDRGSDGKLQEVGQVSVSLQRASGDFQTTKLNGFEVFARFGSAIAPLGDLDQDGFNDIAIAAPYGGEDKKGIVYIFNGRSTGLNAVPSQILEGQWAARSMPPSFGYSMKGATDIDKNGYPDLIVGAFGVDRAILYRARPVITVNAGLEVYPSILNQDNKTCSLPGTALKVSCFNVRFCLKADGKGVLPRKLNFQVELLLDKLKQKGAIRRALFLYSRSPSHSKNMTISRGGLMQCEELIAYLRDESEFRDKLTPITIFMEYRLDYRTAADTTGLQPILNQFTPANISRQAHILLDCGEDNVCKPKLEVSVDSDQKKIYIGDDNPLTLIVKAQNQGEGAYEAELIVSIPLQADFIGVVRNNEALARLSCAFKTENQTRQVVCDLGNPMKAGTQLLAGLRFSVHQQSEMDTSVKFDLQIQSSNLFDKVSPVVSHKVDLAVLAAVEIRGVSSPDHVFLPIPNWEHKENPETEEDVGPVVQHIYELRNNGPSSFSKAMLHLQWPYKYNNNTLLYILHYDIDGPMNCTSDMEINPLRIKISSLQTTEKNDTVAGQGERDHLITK
T2 sequence (P06756 891-1048 partner limits assumed): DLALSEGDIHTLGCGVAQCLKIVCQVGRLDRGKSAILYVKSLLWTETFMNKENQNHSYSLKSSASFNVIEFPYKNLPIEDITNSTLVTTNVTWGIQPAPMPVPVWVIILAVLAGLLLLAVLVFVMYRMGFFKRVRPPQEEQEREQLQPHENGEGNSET
T2 sequence (P18084 24-799 partner): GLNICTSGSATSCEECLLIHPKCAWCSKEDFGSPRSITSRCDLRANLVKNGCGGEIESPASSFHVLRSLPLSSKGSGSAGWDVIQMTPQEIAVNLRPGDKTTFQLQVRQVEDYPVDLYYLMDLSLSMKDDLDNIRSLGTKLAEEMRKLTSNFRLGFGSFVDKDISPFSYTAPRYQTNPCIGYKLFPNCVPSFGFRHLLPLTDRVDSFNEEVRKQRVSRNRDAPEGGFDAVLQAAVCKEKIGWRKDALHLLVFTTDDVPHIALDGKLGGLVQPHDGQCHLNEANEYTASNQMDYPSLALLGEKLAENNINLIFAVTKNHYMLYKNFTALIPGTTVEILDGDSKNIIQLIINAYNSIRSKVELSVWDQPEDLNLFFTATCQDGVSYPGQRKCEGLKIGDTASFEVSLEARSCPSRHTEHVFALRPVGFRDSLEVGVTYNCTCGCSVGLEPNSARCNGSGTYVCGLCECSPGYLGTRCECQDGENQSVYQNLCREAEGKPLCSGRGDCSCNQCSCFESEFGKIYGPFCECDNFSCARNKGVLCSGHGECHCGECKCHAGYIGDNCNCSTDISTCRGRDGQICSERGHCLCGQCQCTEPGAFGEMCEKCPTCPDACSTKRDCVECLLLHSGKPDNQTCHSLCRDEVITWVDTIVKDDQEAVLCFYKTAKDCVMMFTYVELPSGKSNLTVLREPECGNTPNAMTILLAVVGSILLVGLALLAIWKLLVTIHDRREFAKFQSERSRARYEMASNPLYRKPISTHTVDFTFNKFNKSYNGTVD
Method: as §1, §2

[3] = biological target: T1, integrin αvβ3; assay: scFv vs Mab integrin competition assay; assay type: binding; conditions: αvβ3 coated plate, CNTO95 mAb at 0.8 nM
Method: (§3) To compare the binding affinity of scFv CNTO95 and CNTO 95 mAb, the 96-well plates were coated with 100 ul of integrin αvβ3 or αvβ5 as described above. CNTO95 mAb was added to each well at 0.8 nM for αvβ3 coated plate or 0.2 nM for αvβ5 coated plate. Controls and scFv purified protein diluted serially at 3-fold with TBST were added to the coated wells in duplicate. The mix of CNTO95 mAb and sFv were incubated at 37° C. for 2 hrs. The detection antibody was 1:10K dilution of peroxidase conjugated affinipure F(ab′)2 fragment Goat anti-human IgG, Fc fragment specific (minimal cross reaction to Bovine, Horse and mouse serum protein) (Jackson Immunoresearch ). The antibody was incubated on the plate 1 hr at 37° C. and the color was developed and read as above. CNTO95 mAb binding to both alpha-V-integrins was competed with the […] (FIGS. 15A and B).

[4] = biological target: T2, integrin αvβ5; assay: scFv vs Mab integrin competition assay; assay type: binding; conditions: αvβ5 coated plate, CNTO95 mAb at 0.2 nM
Method: as §3

[5] = tested on: A375.S2 cells; assay: Binding and internalization at 37° C., confocal microscopy; assay type: cell-based, human; conditions: 37° C. for 10 min, washed, 1 hour at 37° C.
Method: These targeted-liposomes were used in the cytotoxicity assay using the various cells lines, as described below. A375.S2 cells were harvested by scraping and then resuspended to obtain individualized cells and rejuvenated for 1 hour, at 37° C. About 1 million cells of each tumor type were counted and distributed into individual centrifugation tubes. The tubes were spun to obtain a cell pellet. […] Cells were treated with the liposome formulations containing either a doxorubicin payload or a fluorescent marker (Dextran Alexa Fluor 488). Treatment was terminated by adding 1 mL of washing media (serum free), vortexing briefly, and centrifuging to recover a cell pellet The cells in the pellet were resuspend in washing media, vigorously shaken for 10 minutes at 37° C. and then centrifuged again (440 rpm). The cell pellet was left in 100 μL of media, an aliquot of 8 μL was taken and placed on a glass slide for observation under a confocal microscope.

T1 sequence (P06756 31-889 limits assumed): as the sequence (P06756 31-889 limits assumed) above
T1 sequence (P06756 891-1048 partner limits assumed): as the sequence (P06756 891-1048 partner limits assumed) above
T1 sequence (P05106 27-788 partner): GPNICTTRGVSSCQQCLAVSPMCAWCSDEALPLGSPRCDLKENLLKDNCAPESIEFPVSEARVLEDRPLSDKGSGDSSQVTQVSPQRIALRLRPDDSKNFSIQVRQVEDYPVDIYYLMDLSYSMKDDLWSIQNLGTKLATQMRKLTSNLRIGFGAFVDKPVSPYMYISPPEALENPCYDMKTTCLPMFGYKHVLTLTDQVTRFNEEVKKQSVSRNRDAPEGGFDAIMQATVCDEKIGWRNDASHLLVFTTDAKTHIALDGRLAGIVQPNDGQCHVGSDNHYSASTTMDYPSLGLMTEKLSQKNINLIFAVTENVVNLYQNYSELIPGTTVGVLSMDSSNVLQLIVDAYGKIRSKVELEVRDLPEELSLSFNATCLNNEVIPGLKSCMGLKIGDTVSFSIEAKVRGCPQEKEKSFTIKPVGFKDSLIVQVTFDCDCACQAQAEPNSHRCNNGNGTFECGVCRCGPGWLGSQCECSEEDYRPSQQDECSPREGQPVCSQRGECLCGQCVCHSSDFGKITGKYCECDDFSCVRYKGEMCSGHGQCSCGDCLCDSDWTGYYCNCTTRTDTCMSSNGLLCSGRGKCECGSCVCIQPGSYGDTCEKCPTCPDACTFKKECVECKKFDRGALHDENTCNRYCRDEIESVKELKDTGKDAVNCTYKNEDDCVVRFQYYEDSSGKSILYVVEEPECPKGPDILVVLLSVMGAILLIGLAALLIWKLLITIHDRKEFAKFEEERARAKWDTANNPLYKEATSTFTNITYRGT

**Q.** “CNTO95 scFv: single chain variable fragment of CNTO 95, VH-(Gly4Ser)3-VL, R18L, 6×His tag and Gly4Cys (SEQ ID NO: 4)” was tested. Which “binding to integrin-coated ELISA plates” value [1] did it give?
**A.** The value was “bound”.

**Q.** What about the “binding to integrin-coated ELISA plates” value [2] of the same compound?
**A.** Its value is “bound”.

**Q.** What about the “competition with CNTO95 mAb for integrin binding” value [3] of the same compound?
**A.** The value was “effectively competes”.

**Q.** What about the “competition with CNTO95 mAb for integrin binding” value [4] of the same compound?
**A.** Its value is “effectively competes”.

**Q.** For `COc1cccc2c1C(=O)c1c(O)c3c(c(O)c1C2=O)C[C@@](O)(C(=O)CO)C[C@@H]3O[C@H]1C[C@H](N)[C@H](O)[C@H](C)O1` [free dox, doxorubicin], which “binding and internalization (confocal microscopy)” value [5] is on record?
**A.** The value was “drug internalization is evident”.
